Molecular target: HUαβ (Escherichia coli (overexpressed in …, UniProt P0ACF0;P0ACF4 1-90;1-90))
Assay: ITC

Chain of HUαβ (Escherichia coli (P0ACF0 whole entry, chain 1 of 2): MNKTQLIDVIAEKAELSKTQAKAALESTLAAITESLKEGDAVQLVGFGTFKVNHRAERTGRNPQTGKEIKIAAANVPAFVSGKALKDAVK
Chain of HUαβ (Escherichia coli (P0ACF4 whole entry, chain 2 of 2): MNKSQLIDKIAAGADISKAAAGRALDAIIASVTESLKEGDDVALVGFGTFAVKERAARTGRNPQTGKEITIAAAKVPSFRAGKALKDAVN

B1: 38 bp DNA (dsDNA)
DNA 1: CGGTCAGTTCAAGCCCTTCTAAGTTTGTAGACACCAGC
DNA 2: GCTGGTGTCTACAAACTTAGAAGGGCTTGAACTGACCG
- binding result: binds

From PMC2649783
